# Results reported in US20020012949A1, “Assay systems for leptin-enhancing agents” (priority 1997, published 2002).
# Biological target: T1, OB-R (Homo sapiens, UniProt P48357)
# T1 construct: The cytoplasmic domain and full-length human OB-R was cloned by PCR; expressed in transfected cells; host or cells: COS-7
# T1 sequence (P48357 22-1165): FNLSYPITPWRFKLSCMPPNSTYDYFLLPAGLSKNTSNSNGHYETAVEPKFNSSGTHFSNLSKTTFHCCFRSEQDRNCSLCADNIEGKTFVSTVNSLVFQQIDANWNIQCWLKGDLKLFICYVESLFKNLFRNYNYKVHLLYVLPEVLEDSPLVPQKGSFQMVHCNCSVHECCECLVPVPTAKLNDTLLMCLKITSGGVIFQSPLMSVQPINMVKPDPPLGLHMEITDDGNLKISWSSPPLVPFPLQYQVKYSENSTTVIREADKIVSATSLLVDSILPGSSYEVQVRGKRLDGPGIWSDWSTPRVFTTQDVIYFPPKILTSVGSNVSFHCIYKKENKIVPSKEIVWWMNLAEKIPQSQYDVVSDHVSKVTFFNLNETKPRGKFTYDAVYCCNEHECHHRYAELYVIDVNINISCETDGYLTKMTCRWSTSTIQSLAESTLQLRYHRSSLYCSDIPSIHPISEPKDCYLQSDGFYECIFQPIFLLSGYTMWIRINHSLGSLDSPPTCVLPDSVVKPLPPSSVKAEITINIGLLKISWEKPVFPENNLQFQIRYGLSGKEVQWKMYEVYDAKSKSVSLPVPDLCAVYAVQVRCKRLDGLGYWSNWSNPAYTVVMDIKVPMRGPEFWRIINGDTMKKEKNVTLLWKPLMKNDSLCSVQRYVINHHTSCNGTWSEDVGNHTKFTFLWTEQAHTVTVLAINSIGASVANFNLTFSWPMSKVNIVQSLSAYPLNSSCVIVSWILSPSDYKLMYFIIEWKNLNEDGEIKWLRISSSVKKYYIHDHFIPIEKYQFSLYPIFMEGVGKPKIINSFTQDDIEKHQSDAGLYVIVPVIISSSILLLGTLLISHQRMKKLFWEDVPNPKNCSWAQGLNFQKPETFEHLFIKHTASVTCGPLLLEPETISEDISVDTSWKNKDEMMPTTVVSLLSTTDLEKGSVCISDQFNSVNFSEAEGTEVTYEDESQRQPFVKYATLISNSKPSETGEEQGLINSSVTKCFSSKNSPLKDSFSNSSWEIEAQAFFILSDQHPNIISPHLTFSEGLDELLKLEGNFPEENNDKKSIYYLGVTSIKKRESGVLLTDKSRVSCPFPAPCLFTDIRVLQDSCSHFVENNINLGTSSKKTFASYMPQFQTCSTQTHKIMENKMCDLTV
# Test: Immunoprecipitation and western blotting of tyrosine phosphorylation, leptin-stimulated COS cells expressing OB-R
# Format: cell-based
# Settings: 100 ng/ml human leptin for 10 min
# Experimental: The cytoplasmic domain and full-length human OB-R was cloned by PCR using human fetal liver and adipocyte cDNA (Clontech) and cloned into the expression vectors pCMX and pMT21. Chimeric receptors were constructed by fusing the extracellular domain and transmembrane domain of TrkC (amino acids 1 to 458) to the cytoplasmic domain of OB-R (amino acids 865-1165). A triple myc epitope tag was added at the C-terminus of all OB-R constructs (18). Truncation and point mutant constructs were generated by PCR and the sequences of all constructs were verified. Expression constructs were transfected into COS-7 cells using lipofectamine (GIBCO-BRL); 36-48 hours after transfection, cells were starved for either 2 hour,s for chimeric receptors or overnight for full-length receptors prior to stimulation.
# Cells were stimulated with 50 ng/ml of human NT-3 for 15 min or 100 ng/ml of human leptin (R&D Systems) for 10 min. Cells were then lysed in a 1% Brij 96 buffer and receptor was immunoprecipitated with anti-myc antibody 9E10 (18) followed by protein G-sepharose (Pharmacia). Unbound lysate was then immunoprecipitated with anti-P-Tyr antibody (UBI, Lake Placid) or agarose-conjugated anti-SHP-2 antibody (Santa Cruz Biotechnology). […] Endogenous STAT3, SHP-2, Jak1 and Jak2 is being detected in all immunoblotting experiments. […]
substance,measurement,value
"leptin: the product of the obese gene, secreted by adipocytes; ligand of OB-R","tyrosine phosphorylation of receptor, STAT3 and SHP-2","results in phosphorylation of the receptor, STAT3 and SHP-2"
